Source: patent publication EP2420255A2 (Ecole Polytechnique Federale De Lausanne (EPFL), dated 2012)
Numbered stars: 1 amine (or outer) side, 2 acyl side, 3 side chain; on linkers, the order of the positions; unused ones are H or OH. Bridge positions count the residues as written; N and C are the ends. TBMB = c1c(C[*:1])cc(C[*:3])cc1C[*:2]

Assays:
[1] = biological target: T1, human urokinase-type plasminogen activator (UPA-LMW, from human urine, 33 kDa) (human, UniProt P00749 156-431); test: enzyme inhibition, Ki
[2] = biological target: T2, mouse uPA (MUPA-LMW, recombinantly produced in insect cells, 31 kDa) (mouse, UniProt P06869 157-433, limits assumed); test: enzyme inhibition, Ki
T2 construct: also called murine uPA

[3] = biological target: T1, human urokinase-type plasminogen …; test: cell-based or functional assay
[4] = biological target: T2, mouse uPA (MUPA-LMW, recombinantly …); test: cell-based or functional assay
[5] = biological target: T3, human tPA (HTPA-TC, recombinant, 70 kDa) (human, UniProt P00750 36-562); test: cell-based or functional assay
[6] = biological target: T4, mouse tPA (MTPA, recombinantly produced in insect cells, 70 kDa) (mouse, UniProt P11214 33-559, limits assumed); test: cell-based or functional assay
[7] = biological target: T5, human plasmin (HPLM, from human plasma, 85 kDa) (human, UniProt P00747 97-810, limits assumed); test: cell-based or functional assay
[8] = biological target: T6, human trypsin (HTRYP, from human pancreas, 25 kDa) (human, UniProt P07477 24-247); test: cell-based or functional assay
[9] = biological target: T7, human plasma kallikrein (IHPKA, from human plasma, 86 kDa) (human, UniProt P03952 20-638); test: cell-based or functional assay
[10] = biological target: T8, human thrombin (IHT, from human plasma, 37 kDa) (human, UniProt P00734 328-622); test: cell-based or functional assay
[11] = biological target: T9, human factor XIa (IHFXI, from human plasma, 160 kDa) (human, UniProt P03951 19-625); test: cell-based or functional assay
[12] = biological target: T1, human urokinase-type plasminogen …; test: enzyme inhibition, Ki calculated from IC50 by the Cheng-Prusoff equation, pH 7.4, 25 °C
[13] = biological target: T2, mouse uPA (MUPA-LMW, recombinantly …); test: as above
[14] = biological target: T3, human tPA (HTPA-TC, recombinant, 70 kDa); test: as above
[15] = biological target: T4, mouse tPA (MTPA, recombinantly produced …); test: as above
[16] = biological target: T5, human plasmin (HPLM, from human plasma, …); test: as above
[17] = biological target: T6, human trypsin (HTRYP, from human …); test: as above
[18] = biological target: T7, human plasma kallikrein (IHPKA, from …); test: as above
[19] = biological target: T8, human thrombin (IHT, from human plasma, …); test: as above
[20] = biological target: T9, human factor XIa (IHFXI, from human …); test: as above
[21] = biological target: T1, human urokinase-type plasminogen …; test: enzyme inhibition of human uPA, residual activity

T2 sequence (P06869 157-433 limits assumed): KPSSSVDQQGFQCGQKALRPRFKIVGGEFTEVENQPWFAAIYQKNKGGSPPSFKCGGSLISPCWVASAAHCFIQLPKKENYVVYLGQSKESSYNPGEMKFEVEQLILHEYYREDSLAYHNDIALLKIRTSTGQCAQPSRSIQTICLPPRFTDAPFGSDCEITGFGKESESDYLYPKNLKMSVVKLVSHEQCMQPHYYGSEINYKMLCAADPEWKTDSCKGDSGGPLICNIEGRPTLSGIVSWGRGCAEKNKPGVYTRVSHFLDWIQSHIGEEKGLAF
T9 sequence (P03951 19-625 limits assumed): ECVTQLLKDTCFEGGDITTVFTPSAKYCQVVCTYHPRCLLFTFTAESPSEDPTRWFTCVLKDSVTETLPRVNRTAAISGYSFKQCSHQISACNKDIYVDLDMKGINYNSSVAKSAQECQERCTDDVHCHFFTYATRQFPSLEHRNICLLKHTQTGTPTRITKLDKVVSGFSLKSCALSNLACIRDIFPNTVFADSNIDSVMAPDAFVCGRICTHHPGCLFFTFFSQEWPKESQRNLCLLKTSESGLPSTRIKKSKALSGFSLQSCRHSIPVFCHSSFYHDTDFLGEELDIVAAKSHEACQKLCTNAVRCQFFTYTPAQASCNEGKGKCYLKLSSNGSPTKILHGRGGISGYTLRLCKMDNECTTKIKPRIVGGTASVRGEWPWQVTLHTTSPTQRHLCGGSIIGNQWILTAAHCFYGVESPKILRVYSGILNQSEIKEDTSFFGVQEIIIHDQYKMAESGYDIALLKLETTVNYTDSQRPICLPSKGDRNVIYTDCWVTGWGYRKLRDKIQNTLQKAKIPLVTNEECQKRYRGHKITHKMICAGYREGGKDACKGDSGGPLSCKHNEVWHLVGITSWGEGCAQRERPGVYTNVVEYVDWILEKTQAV
T7 sequence (P03952 20-638 limits assumed): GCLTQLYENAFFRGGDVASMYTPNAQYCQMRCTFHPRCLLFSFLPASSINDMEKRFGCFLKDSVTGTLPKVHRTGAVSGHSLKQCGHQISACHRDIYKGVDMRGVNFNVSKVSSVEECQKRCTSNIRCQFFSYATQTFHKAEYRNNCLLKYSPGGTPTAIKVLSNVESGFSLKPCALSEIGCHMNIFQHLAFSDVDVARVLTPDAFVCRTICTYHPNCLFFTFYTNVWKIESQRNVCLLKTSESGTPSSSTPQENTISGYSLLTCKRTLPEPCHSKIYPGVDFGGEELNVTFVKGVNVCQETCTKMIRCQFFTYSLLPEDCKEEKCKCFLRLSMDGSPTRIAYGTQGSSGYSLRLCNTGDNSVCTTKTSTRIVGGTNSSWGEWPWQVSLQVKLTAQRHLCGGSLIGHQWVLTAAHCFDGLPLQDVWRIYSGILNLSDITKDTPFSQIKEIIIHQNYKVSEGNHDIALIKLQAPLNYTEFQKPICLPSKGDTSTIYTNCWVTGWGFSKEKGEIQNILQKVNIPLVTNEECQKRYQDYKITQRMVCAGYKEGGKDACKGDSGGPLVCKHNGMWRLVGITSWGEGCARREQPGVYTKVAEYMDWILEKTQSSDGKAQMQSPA
T3 sequence (P00750 36-562 limits assumed): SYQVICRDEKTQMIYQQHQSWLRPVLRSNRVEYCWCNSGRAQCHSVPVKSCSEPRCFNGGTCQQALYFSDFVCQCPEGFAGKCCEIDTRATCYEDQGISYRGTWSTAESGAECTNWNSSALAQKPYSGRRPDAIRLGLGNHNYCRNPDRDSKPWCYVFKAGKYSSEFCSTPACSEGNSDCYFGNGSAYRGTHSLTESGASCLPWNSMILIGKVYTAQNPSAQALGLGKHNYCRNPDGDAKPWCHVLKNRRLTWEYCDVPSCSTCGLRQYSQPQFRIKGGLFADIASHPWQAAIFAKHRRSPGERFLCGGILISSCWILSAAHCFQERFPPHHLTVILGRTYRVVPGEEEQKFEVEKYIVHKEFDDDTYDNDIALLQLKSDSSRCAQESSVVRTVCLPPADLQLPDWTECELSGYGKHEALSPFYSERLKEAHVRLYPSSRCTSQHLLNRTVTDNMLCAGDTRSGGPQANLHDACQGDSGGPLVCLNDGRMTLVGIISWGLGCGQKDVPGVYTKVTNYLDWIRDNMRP
T4 sequence (P11214 33-559 limits assumed): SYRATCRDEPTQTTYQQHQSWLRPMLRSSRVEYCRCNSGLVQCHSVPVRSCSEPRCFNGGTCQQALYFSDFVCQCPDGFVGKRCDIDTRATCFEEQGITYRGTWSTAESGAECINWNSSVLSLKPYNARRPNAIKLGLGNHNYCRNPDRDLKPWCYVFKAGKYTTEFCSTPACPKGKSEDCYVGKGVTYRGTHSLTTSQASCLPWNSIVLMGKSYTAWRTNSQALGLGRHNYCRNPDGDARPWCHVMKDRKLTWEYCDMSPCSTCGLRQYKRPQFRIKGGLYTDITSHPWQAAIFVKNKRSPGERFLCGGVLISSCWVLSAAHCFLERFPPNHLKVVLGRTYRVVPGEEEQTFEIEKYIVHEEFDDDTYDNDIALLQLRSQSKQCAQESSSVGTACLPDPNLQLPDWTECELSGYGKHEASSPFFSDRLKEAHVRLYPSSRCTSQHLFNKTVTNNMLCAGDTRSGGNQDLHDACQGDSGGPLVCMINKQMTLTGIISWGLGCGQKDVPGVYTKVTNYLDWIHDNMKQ
T5 sequence (P00747 97-810 limits assumed): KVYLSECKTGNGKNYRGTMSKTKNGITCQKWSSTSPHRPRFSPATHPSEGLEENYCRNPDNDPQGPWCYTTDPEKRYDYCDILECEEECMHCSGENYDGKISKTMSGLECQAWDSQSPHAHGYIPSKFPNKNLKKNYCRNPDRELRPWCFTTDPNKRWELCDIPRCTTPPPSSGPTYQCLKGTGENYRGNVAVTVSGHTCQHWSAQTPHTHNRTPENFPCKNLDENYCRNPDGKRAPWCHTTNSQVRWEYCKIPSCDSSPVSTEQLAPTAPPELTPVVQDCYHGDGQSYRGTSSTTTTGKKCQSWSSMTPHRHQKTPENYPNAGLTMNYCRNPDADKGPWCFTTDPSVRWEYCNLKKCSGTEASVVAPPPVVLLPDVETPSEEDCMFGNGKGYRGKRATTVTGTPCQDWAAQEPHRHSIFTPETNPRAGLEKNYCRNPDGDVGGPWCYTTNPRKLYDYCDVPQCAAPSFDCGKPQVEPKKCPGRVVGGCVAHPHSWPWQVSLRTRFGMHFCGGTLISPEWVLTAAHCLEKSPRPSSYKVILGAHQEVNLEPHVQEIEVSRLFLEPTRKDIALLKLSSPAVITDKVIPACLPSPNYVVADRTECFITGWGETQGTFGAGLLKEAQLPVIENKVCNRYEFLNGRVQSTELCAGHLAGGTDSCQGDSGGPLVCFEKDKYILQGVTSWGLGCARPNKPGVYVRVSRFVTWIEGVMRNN

B1: UK18 bicyclic peptide (chemically synthesized peptide-TBMB conjugate, H-ACSRYEVDCRGRGSACG-NH2 cyclised with tris-(bromomethyl)benzene) (peptide)
peptide: H-ACSRYEVDCRGRGSACG-NH2
modifications: linker 2-9-16 via TBMB
SMILES: CC(C)[C@@H]1NC(=O)[C@H](CCC(=O)O)NC(=O)[C@H](Cc2ccc(O)cc2)NC(=O)[C@H](CCCNC(=N)N)NC(=O)[C@H](CO)NC(=O)[C@@H](NC(=O)[C@H](C)N)CSCc2cc3cc(c2)CSC[C@H](NC(=O)[C@H](CC(=O)O)NC1=O)C(=O)N[C@@H](CCCNC(=N)N)C(=O)NCC(=O)N[C@@H](CCCNC(=N)N)C(=O)NCC(=O)N[C@@H](CO)C(=O)N[C@@H](C)C(=O)N[C@H](C(=O)NCC(N)=O)CSC3
notes: Synthetic bicyclic peptide, 1903 Da after reaction with TBMB; also called clone 18; TBMB-cyclised UK18 peptide
- fold better inhibition than of other serine proteases [1]: ~1000 fold
- fold of Ki against the Ki of human uPA [2]: ~1400 fold
- IC50 (µM), residual protease activity, substrate Z-Gly-Gly-Arg-AMC [3]: 0.047 µM
- IC50 (µM), residual protease activity, substrate Z-Gly-Gly-Arg-AMC [4]: 65.5 µM
- IC50 (µM), residual protease activity, substrate Z-Gly-Gly-Arg-AMC [5]: 87.5 µM
- IC50 (µM), residual protease activity, substrate Z-Gly-Gly-Arg-AMC [6]: 52.5 µM
- IC50 (µM), residual protease activity, substrate H-D-Val-Leu-Lys-AMC [7]: 57.5 µM
- IC50 (µM), residual protease activity, substrate Z-Gly-Gly-Arg-AMC [8]: 54.5 µM
- IC50 (µM), residual protease activity, substrate Z-Phe-Arg-AMC [9]: 47.5 µM
- IC50 (µM), residual protease activity, substrate Z-Gly-Gly-Arg-AMC [10]: 36 µM
- IC50 (µM), residual protease activity, substrate Boc-Phe-Ser-Arg-AMC [11]: 63 µM
- Ki [12]: 0.03 µM
- Ki [13]: 42 µM
- Ki [14]: 56.1 µM
- Ki [15]: 33.7 µM
- Ki [16]: 36.9 µM
- Ki [17]: 34.9 µM
- Ki [18]: 30.5 µM
- Ki [19]: 23.1 µM
- Ki [20]: 40.4 µM

B2: linear UK18 peptide with serine instead of cysteine in positions 2, 9 and 16 (H-ASSRYEVDSRGRGSASG-NH2) (peptide)
peptide: H-ASSRYEVDSRGRGSASG-NH2
notes: Not conjugated to TBMB; M = 1740.0 Da; also called UK18ser
- Ki [21]: 5.8 µM
- fold weaker inhibition than the TBMB-cyclised UK18 peptide [21]: ~200 fold
